Reference: patent publication US20070167369A1, “Novel use of isolated polypeptide comprising four FAS-1 domains, EM1 domain and RGD motif” (KYUNGPOOK NATIONAL UNIVERSITY INDUSTRY-ACADEMIC COOPERATION …, priority 2004, published 2007)

Tests used:
[1] = test system: FAK-Raf-ERK/AKT signal transduction pathway; test: Western blot of phosphorylation of FAK-Raf-ERK/AKT pathway enzymes in HUVECs (Example 12); type: cell-based, human; settings: 20 μM
Method: To examine the inhibitory mechanism of the fas-1 domain against endothelial cell proliferation and migration, the amount and activity of enzymes related to a FAK-Raf-ERK/AKT signal transduction pathway that is a typical signal transduction pathway in cells was determined by Western blot analysis on HUVECs treated with the fas-1 domain. Since the signal transduction-related proteins undergo phosphorylation during their activation process, the amount of phosphorylated proteins can be measured to predict their activity.
HUVECs were spread onto a 100-mm plate with 10% FBS-containing M199 medium, and incubated in an incubator at 37° C. for 12 hours. Following this, the culture medium was replaced with fresh medium containing 0.1% FBS and then further incubated for 24 hours. After removing the medium, the cells were washed one time with PBS buffer. The cells were detached from the plate by treatment with Trypsin-EDTA solution. The cells were suspended in 10% FBS-containing medium. Fas-1 protein was added to the cell suspension at final concentration of 20 μM. A control was added with PBS buffer. Thereafter, 3 ml of the cell mixture was taken and spread onto a plate coated with collagen. After 30 minutes, 60 minutes and 90 minutes, respectively, the medium was removed from the plate, and the cells were washed one time with PBS buffer. The cells were added with 200 μl of cell lysis buffer and left to stand on ice. The cell lysate was centrifuged at 12,000 rpm for 10 minutes at 4° C., and the supernatant containing a soluble protein was collected. Next, to quantify the concentration of the protein, a Bradford assay (BioRad, Hercules, Calif.) was performed using BSA as the standard protein. 30 μg of each of the sample proteins was electrophoresed on 10% SDS-polyacrylamide gel. The protein on the gel was transferred onto a nitrocellulose membrane, using electrophoresis. The protein transferred to the membrane was reacted with 5% skimmed milk for one hour to block nonspecific protein binding. Following this, it was reacted with the following various antibodies to signal transduction proteins: FAK (BD Science, Franklin Lakes, N.J., USA), pFAK (phosphorylated FAK; Santa Cruz Co., CA, USA), ERK (Sanca Cruz Co., CA, USA), pERK (phosphorylated ERK; Santa Cruz Co., CA, USA), AKT (Cell Signaling Technology Co., Beverly, Mass.), pAKT (phosphorylated AKT; Cell Signaling Technology Co., Beverly, Mass.), Raf1 (Santa Cruz Co., CA, USA) and pRaf1 (phosphorylated Raf1, Santa Cruz Co., CA, USA). The antibodies had been diluted in TBST (50 mM Tris-HCl, pH 7.6, 150 mM NaCl, 0.1% Tween 20) before use. The binding reaction with the antibodies was performed for at least 12 hours in a refrigeration condition. After completion of the reaction, the membrane was washed three times with TBST solution. Thereafter, the membrane was added with HRP-conjugated secondary antibodies (HRP-conjugated-anti-mouse IgG and HRP-conjugated-anti-rabbit IgG; Santa Cruz Co., CA, USA), and a binding reaction with the secondary antibodies was performed at room temperature for one hour. Next, the membrane was washed three times, and then added with 1 ml of ECL as chemiluminescent solution, so that sites where antigen-antibody reaction occurred were visualized by fluorescence. The membrane was exposed to an X-ray film.

[2] = test system: tumors derived from fas-1/B16F10 cells; test: Growth of tumors derived from fas-1-overexpressing melanoma cells (Example 10-2); type: in vivo, mice; settings: fas-1 domain overexpressed in the implanted B16F10 cells
Method: Each of the fas-1-overexpressing melanoma cells (fas-1/B16F10) and the control cells (pLNCX/B16F10) was suspended in medium at a density of 1×10^7 cells/ml. 0.1 ml of each of the cell suspensions was injected subcutaneously to 5-6 week old mice (Hyochang scientific company, Korea) to make a tumor model. Since the diameter of the tumor reached about 3 mm, the body weight and tumor size of the mice were checked at intervals of three days. The longest diameter and the shortest diameter of the tumor were measured with slide calipers, and the measured values were substituted in the following equation (1) to calculate the volume of the tumor. Volume of tumor=a×b^2/2 [Equation 1]
Wherein, ‘a’ is the shortest diameter of the tumor, and ‘b’ is the longest diameter of the tumor.

β5/HEK293 cells = test: Apoptosis by annexin V staining, β5/HEK293 cells expressing αvβ5 integrin (Example 8); type: cell-based; settings: annexin V FACS
Method: To identify an integrin that mediates the induction of endothelial cell apoptosis by the fas-1 domain, the present inventors performed a test using HEK293 cells (β3/HEK293 and β5/HEK293) which had been transfected such as to express αvβ3 integrin or αvβ5 integrin.
Meanwhile, a β5/HEK293 cell that expresses αvβ5 integrin was prepared in the following manner. In order to construct a human β5 integrin expression vector, RT-PCR using human placenta poly(A)^+ RNA as a template was first performed to prepare a 2.8-kb β5 cDNA (Suzuki et al., Proc. Natl. Acad. Sci. USA, 87:5354-5358, 1990). The amplified β5 cDNA was digested with EcoRI, and then cloned into a pcDNA3 vector (Invitrogen). The resulting vector was named “β5/pcDNA3”. Thereafter, 1 μg of the β5/pcDNA3 vector was introduced into HEK293 cells (ATCC, catalog No. CRL 1573) by lipofectamin (Gibco). A stable transfected cell was screened using 1 mg/ml of G418. The cell transfected with the β5/pcDNA3 vector was named “β5/HEK293”.
pc/HEK293 cells, β3/HEK293 cells and β5/HEK293 cells were stained with annexin V to identify an integrin that mediates the induction of endothelial cell apoptosis by the fas-1 domain. Each of the cells was suspended in medium at a density of 5×10^5 cells/ml, added to each well of 6-well plated and incubated at 37° C. overnight. Following this, a test was performed in the same manner as in Example 7-1 above.

HUVECs = test: Inhibition of βig-h3-mediated endothelial cell adhesion (Example 4-1); type: cell-based, human
Method: HUVECs were suspended in medium at a density of 3×10^5 cells/ml, and 0.1 ml of the cell suspension was added with the fourth fas-1 domain of βig-h3 (βig-h3 D-IV) prepared in Example 1, at concentrations of 5 μM, 10 μM and 20 μM, respectively, and preincubated at 37° C. for 30 minutes. The preincubated cells were added to each well of the 96-well plate precoated with a recombinant βig-h3 His-1-b protein. Then, the cells were tested in the same manner as in Example 2. A control was treated with 2% BSA.

[3] = collagen-coated plate, 30, 60, 90 minutes

B1: fas-1 domain: recombinant protein containing the fourth fas-1 domain of human βig-h3 (SEQ ID NO: 64) (protein, listed as Homo sapiens)
chain: MGTVMDVLKGDNRFSMLVAAIQSAGLTETLNREGVYTVFAPTNEAFRALPPRERSRLLGDAKELANILKYHIGDEILVSGGIGALVRLKSLQGDKLEVSLKNNVVSVNKEPVAEPDIMATNGVVHVITNVL
absolute amounts of FAK, Raf1, ERK and AKT enzymes in the cells vs control [1]: not significantly different
phosphorylation of AKT [1, 3]: greatly reduced as compared to that of the control
phosphorylation of ERK [1, 3]: no increase in phosphorylation until 90 minutes
phosphorylation of FAK [1, 3]: reduced as compared to the control
phosphorylation of Raf1 [1, 3]: greatly reduced as compared to that of the control
growth of tumors derived from melanoma cells [2]: inhibits the in vivo growth of tumors derived from the melanoma cells
induction of apoptosis of β5/HEK293 cells (β5/HEK293 cells): not induced
inhibition of βig-h3-mediated adhesion of endothelial cells (HUVECs; 5 μM): inhibited
inhibitory effect of endothelial cell adhesion compared with YH motif-containing peptide fragment of 18 amino acids (HUVECs; 20 μM fas-1 domain vs 1,000 μM YH peptide): higher
inhibition of βig-h3-mediated adhesion of endothelial cells (HUVECs; 5, 10 and 20 μM): inhibited in a dose-dependent manner
